Consider one molecule from article doi:10.1101/783373 (bioRxiv, 2019).

In test [1] the target is PACRGΔ1-69 Y189ϕ (p-iodo-L-phenylalanine derivative) (human, UniProt Q96M98-2 70-257, Y189ϕ, p-iodo-L-phenylalanine (ϕ) at 189). The test is described as follows: SEC. On the technique in general: SEC sorts molecules by how far they enter the pores of the column.
Test [2] has as its target PACRGΔ1-69 Y108ϕ (p-iodo-L-phenylalanine derivative) (human, UniProt Q96M98-2 70-257, Y108ϕ, p-iodo-L-phenylalanine (ϕ) at 108). The test is described as follows: SEC.

B1: MEIG1 (human), His6 tag cleaved (natural protein)
chain: MASSDVKPKSVSHAKKWSEEIENLYRFQQAGYRDETEYRQVKQVSMVDRWPETGYVKKLQRRDNTFYYYNKQRECDDKEVHKVKIYAY
Regarding B1, the binding result in test [1] and in test [2] was “binds” throughout.
